The source of these data is the DeepSol protein solubility set.

A short description of the series: soluble on expression in E. coli; label from the status in PepcDB or PDB records.
As for “MLPKSSLKETQQALANAIRLGNADPLNGYAASRLAVYTRLVRNNAFGFIDRCFVEAPLHIEPEYWKNAKENFVQNGNAHSPYFQDIAGEFLLFCQEKEIFDTNILALMDFENTQLLAEVSLAKVPEKFEWNRHSVMQLSGAAYLKSYDVDFLSSDFKQFDDTPIQAIIWRDSDFRIQQQILSELDYWLLSYLQEQPNSLENVLSALNTMVEDSTSIIPLLEQVWMKWVTSEVIYPEQR”, the “soluble on expression in E. coli” value is listed as “not soluble”. The value for “NDAIIILNGEKVLDLNKKGREAFGLGARELDNISIGSLLSEKDLPAVRDALKTTLENGSACFEMKFRKQNGEVIDVEVSSSFLSLEEGEIQCVARD” was “not soluble”.

For the sequence “MSFLQHYKSGNLVLPSALLFHYKDIFSNADDFLVWQFFYFQNTTKMEDIATSQIATAIGKTVPEVNRSVSNLISQELLDMKTIELDGESEVLFDATLALKKLDDLLTAADETTVSSSKGISNALKDLVEDFERELGRMLSPFELEDLQKTVSDDKTDPDLVRSALREAVFNGKTNWNYIQAILRNWRHEGISTLRQVEERRKEREQANPANVTVSDDFLSAMNLWSDSDAR”, the “soluble on expression in E. coli” value is listed as “not soluble”.

As to “MGSDKIHHHHHHMEKLYEIYTGGAEDSFEVGKLLFEENSWQLYLTLDELGRDDSLLLIRKPAVTRLLDQSDYLAEIQRRRKMLTQKGLADPFKLEDKVTLIKSVGSFMDLLPGQVVYFGLEGEDYQQWGYIDEISAGQVNFAAYPSGKYRPFAGEVAVSQLRRLAAFSGEWLLDNPKLRDTEDTTVDGLREVHLKEDPASFAVGRLLCADDDFSLYLTVDEIGRDDSLLLVKKLAVDRVIDQSEYLQDTSRCRRQLKEKGLEDPFEVQGKAANIKQMQDFWRLAAGQVVSFVMKDEEEAEYGILKSKEGDALSFGQYPSGKYETFAGQISLVEVDRLEAFGGELTLENNNC”, the “soluble on expression in E. coli” value is “not soluble”. Regarding “MARFLLIIGCATLAALASCESKSGEETPQYWRAILGDICQLPSFPRATGDPTRYVECVRQSSFAADRKDLGIWLLRECLPGYEFVASARRCKTVRSVNKQQELCESANATEYNFCPTASAMQFLVEETREAPRQCACPNGEQNCVCPSPEILEPISAVKKVRRSAQQQPLRFSQYPSCPCPQNQPACTCSTNNQQNEQILVSISCCQQQETTTQAPVQMQPCQCTPTQIQQNCQTTTTQQQYCPQQSAPVVQPQPCPLVQGSGVQNAQYQGICSWMIDPLATDPQSRTHYLQCQPAPNNLFCGRWQRMPCAPGTVFDVQSQVCVWDTNSQPGTLPTPAPYVSTQAPQNAQCGCTGGVQIGSCNQNYQCPGQSVCQVGQNAGQQCMVCCYFRKKARRF”, the “soluble on expression in E. coli” value was “not soluble”. The value for “MIPTATYRLQFRNGMTFDRAAALVPYLKNLGISHLYASPIFTATKASTHGYDVTDANEIEPSIGGREGFERLVAELKAQGLGLIIDIVPNHMASSLENAWWRDVLEYGKESRYARHFDIDWSRRLTLPFLGDTFDAVLENGEIAIKPDPATGKPAFAYYDNYYPLAPATWQGREAEILALTDKAAIADLHERQPWKLMSWRDAARSLSYRRFFEVTGLVGMRVEDKTVFDDTHRLILELVRTGAVDGLRIDHIDGLADPKAYLARLRQEVGPACYITVEKILAKGEQLPDDWPVSGTTGYEFIASLAEVLVDDEQIDNLRQAYETVKGAPVDMRAELRAAKLLMVDRNFEGEFTRLLALALSIASELQIAQEESVVRQALRELLIAFPVYRTYGTAEGLPPTDICLLHRIVERVKTLETPPQPEALTFLSRLLTGDVPASSQEEATQFRVRFQQLTGPLMAKSVEDTLFFRQNMGLALNEVGAEPVTHHFSIERFHHEMKTRQARQPDALSGTSTHDTKRGEDARARLYTLTEAPEQWSECLARWRQMNQTHVKFLNDGTAPKSADTWMLYQALTGVWPPVLQPQDETGLNALKTRFEAFVEKALREAKLRTDWVDSNEAYETAMLDYARYLLAPDNQTFLQDFYRSLQPFIRAGLVNSLTQTVIKLTAPGVPDIYQGSEALNFSLVDPDNRREPDFATLAQQLDQLTPGVFSREESWLNGQVNQYVTAALLRLRQQNHELFRFGDYIPLRAVGQRADKVIAYARVNHDDALIVVAPRLVFAECDGLLSQSHSGFWSGTDIIIPGQLNQHRYRNVLTQERLMPGERLSLASHQGGVLVLMSD” was “not soluble”; that for “SLLPFKENRGLIFLDPPFEVKNEFQKLLEALKKIKLRVLNNTVLIWYPIKDLSLVCDVYHNYKNIGFKETMIIEYELLNSDKNMVKCGLMLINPPNIRGELEKLTEYLSGTLNLKFTYIYL” was “not soluble”; that for “LTFSLNFTNKSNDIYGTGWLFDWKGDEKALGIDGSFVPSITSNIDNSLLKDDQFTVYLATNLHVADALRNDQDYEPYKKDQNKQDFTENTKTEFFSLGK” was “soluble”. The value for “AARSECKRSHKFVPGAWLAGEGVDVTSLRRSGSFPVDTQRFLRPDGTCTLCENALQEGTLQRLPLALTNWRAQGSGCQRHVTRAKVSSTEAVARDAARSIRNDWKVGLDVTPKPTSNVHVSVAGSHSQAANFAAQKTHQDQYSFSTDTVECRFYSFHVVHTPPLHPDFKRALGDLPHHFNASTQPAYLRLISNYGTHFIRAVELGGRISALTALRTCELALEGLTDNEVEDCLTVEAQVNIGIHGSISAEAKACEEKKKKHKMTASFHQTYRERHSEVVGGHHTSINDLLFGIQAGPEQYSAWVNSLPGSPGLVDYTLEPLHVLLDSQDPRREALRRALSQYLTDRARWRDCSRPCPPGRQKSPRDPCQCVCHGSAVTTQDCCPRQRGLAQLEVTFIQAWGLWGDWFTATDAYVKLFFGGQELRTSTVWDNNNPIWSVRLDFGDVLLATGGPLRLQVWDQDSGRDDDLLGTCDQAPKSGSHEVRCNLNHGHLKFRYHARCLPHLGGGTCLDYVPQMLLGEPPGNRSGAVW” was “soluble”. The value for “MSLRIQDGTMRYTYKGVPTYKNPFDLALYQMLLWQQKPRTLIEIGSKWGGSALWFADMMCSFGVDCVIHSIDITPPSISVPGVTFHRGDGRDLAATLPADLMESLPRPIFVIEDADHHCETTLAVLRFFDRWLVAGEYIAVEDGIVDDLYGPEFVARLMGGPRRAVELFLRDRGQNYEIDTGLCDHFGTNVTWNVNGYLRRVREGHHHHHH” was “not soluble”; that for “MGSDKIHHHHHHMANSHDGNAQVLSYPKHPPKDFSDLAATLIRNGLGRVDAETLERHLEQVGYFRLKGYWYQFLSPSSSCDYKHVLPFRKGTQFQQIWCRYIFDQELRTLVFDGIITFEIYLKSFLAHELSLFGGEFGYTKPEGLPELSFDDYLACINSLRASFTKSNLPYLKHFKRTYKDPLPPYWMIVGCLSYGTLKGYFYQGSPDSVKRKLAAKLHIFNPNTNPEVHGDIKILSNWLETIRQVRNMVAHHDRFWNETSTRIVPKLPKHRSGLHANEWWGNDWDAFRTDSTGPAAFLTMENYLLQQIDGSAWKNKFISLMDRYPEILATEMGFPEDWRSLALWS” was “not soluble”; that for “MCMQAQDVTIRDQEIKLGQFIKLANLVETGGAAKEVIAEGRVTVNGAVDTRRGKTLRDGDVVCIGTACARVVAGAADDDDYFDEKTANDDFDPEVWRNM” was “not soluble”. In the case of “EKFRWFISSEGFLVIGGKDATTNEIVVRKYLEENDLYCHADIWGAPHVVIKDGQKAGEKTIFEACQFAVSMSRAWSEGLYSADAYWVYPNQVKKQAPSGEFLPK”, the “soluble on expression in E. coli” value is “not soluble”.

As for “MIKTFKSKALAELYETGSSSKTDKKLFKRIIVRLDRLNVAEKPEEMNLPGFNFHALIGFHPIRYTVHINGPWCITFEFDSCNAYRVDLEQYH”, the “soluble on expression in E. coli” value was “not soluble”. The value for “IDKIENYEQSTSQLREEIKTLYNEVIDIGKKLSQERRRVARELRDHIVSEIQNLQMKDANLEISFKPLDEPTIEGIEFVEFLISPNRGEPLKSLNKIASGGELSRIMLALKSIFVKSRGQTAILFDEVDSGVSGQAAQKMAEKMRDIAQYIQVICISHLPQVASMSDHHLLISKASNADRTTTQVKELKDENKIDEIARMISGASVTELTRENAKEMIKQNHNI” was “not soluble”; that for “MGSDKIHHHHHHVETSASVMEPFLQLLRGNNLRWRSFGLTRQDGNVSETEAIPNPQDTVDTHPWGRYVAMGDSFTEGIGDPEPGSPGGHRGWADRVAEELSRGHSDFAYANLAVRGRLLEQIVDQQLAPCLALKPDLVTLSAGGNDLIRPGGDPDALAEKLDSVVHILSLGGATVVLFNGPDTGSSVLGRVRSKIAIYNENLRTVAARHDAVIADMWSLRQLSDPQMWDQDRLHFSPLGHHTIAAMVLDSLNIRHTLEPLSPKPLPQRSWREARSGDLVWAREYFVPWVVRRLRHQSSGDGVTAKRPTPGPVFGPGMPLGSGEAPGIEAEQR” was “not soluble”; that for “MVLLSFDIEEFDVPLEQGYKDFPSEEQLRISRQGTEAILHILRKKGVRSTFFSTVTFWESLPEDLRKGIYTDGHELASHGVFHSSFSKEHLAESRQKLASLWDGTDVCGFRMPRMMPVGDAEIAEAGYLYNSSLNPTCIPGRYNHLSAPRLPYFDKYGVLQMPSSVTPLLRFPLFWLSLHHLPLRLYIRMIRHTVRRDNYLNLYFHPWEFAEISCLPDCKLSYTVTHNSGEKMCRRLEAVIDTLLADGCSFGTFSDYYRFQKQG” was “not soluble”. As to “SAVERVEILRDGAAAQYGSDAIAGVVNIILKAKSTGGGIAYQYGGYTQGDGDQQKILGWKSFALPNDGSVTVAFDAGKRDAANNTLPDSRKFYNSSSSTNAQYNDQNTPYRTWRFGSPEIKDQINLSYNADLPLADDTSLYSFGTYGHRKTIGEGFYEPSTATAAVNQSIYYKERYPDGRIPLSIVTVDDFALTAGAKKGDQKTGKLDGFVTYGRNKVHTDQDNGINPSYGSGSPSSYSLGDNIFSQLNTGLDYSLDANTSWFYHPITVSTGILYRWEQYQQVAGDPVAYTRGPYYNVTTAPEIYSGITDADQRKIDRNVYGAYLDLETEIVKDLNVGVALRSEKYSDFGNTTNGKLTLKYDFDPKLNLRGSASTGYRAPS”, the “soluble on expression in E. coli” value was “not soluble”. Consider “MYKVLRKERLTPKAVLLEVQDERAKLVKPGQYALVQANEESEPIPLSFLDVKESSYTFLVEVGGRATLEIAELVEEKIQFIEAPCGSPFPVKNYGKVLLISKNWGVAPLINIGRALKEESNEIYFVHVAEDEERVFLTKEASEISEEFLLFTEDGSLGEEGNSEWALGYFIENFGKPDLIVSAGSNLDSQMINRFAEERNIPHIAMVNAHILDANGLCLACRVLVEGQEKLACIDGPWFDASKVDWDYAIQKEAFYKEEEEKALKTFLRELQRLKARGR”, for which the “soluble on expression in E. coli” value is listed as “not soluble”.
